Assay results taken from article PMC3448795 (2012).

Legend:
[1] = target: T1, TRTK12 (CapZ peptide 265-276) (Homo sapiens, not fully specified); test: ITC
T1 chain: Ac-TRTKIDWNKILS-NH2

HDM4(25-47) [2] = target: T2, HDM4(25-47) (Homo sapiens, not fully specified; Ca2+; peptide N-acetylated, C-amidated); test: ITC
T2 chain: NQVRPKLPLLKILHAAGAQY

NDR(62-87), site 1 = target: T3, NDR(62-87), site 1 (Homo sapiens, not fully specified; Ca2+; peptide N-acetylated, C-amidated); test: ITC
T3 chain: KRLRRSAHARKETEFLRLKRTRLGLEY

HDM2(25-47) [3] = target: T4, HDM2(25-47) (Homo sapiens, not fully specified; Ca2+; peptide N-acetylated, C-amidated); test: ITC
T4 chain: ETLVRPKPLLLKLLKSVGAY

NDR(62-87), site 2 = target: T5, NDR(62-87), site 2 (Homo sapiens, not fully specified; Ca2+; peptide N-acetylated, C-amidated); test: ITC
T5 chain: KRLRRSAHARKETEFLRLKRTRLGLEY

[4] = target: T1, TRTK12 (CapZ peptide 265-276); test: NMR line shape analysis
HDM4(25-47) [5] = target: T2, HDM4(25-47); test: NMR line shape analysis
HDM2(25-47) [6] = target: T4, HDM2(25-47); test: NMR line shape analysis

Kd [1]: 2000 nM
Kd (HDM4(25-47) [2]): 70 nM
Kd (NDR(62-87), site 1): 400 nM
Kd (HDM2(25-47) [3]): 500 nM
Kd (NDR(62-87), site 2): 2000 nM
Kd [4]: 1000 nM
Kd (HDM4(25-47) [5]): 1000 nM
Kd (HDM2(25-47) [6]): 100 nM
B1: S100B (protein)
chain: SELEKAMVALIDVFHQYSGREGDKHKLKKSELKELINNELSHFLEEIKEQEVVDKVMETLDNDGDGECDFQEFMAFVAMVTTACHEFFEHE
